# Data from paper PMC2362229.
# Tested on: COc1cccc2c1C(=O)c1c(O)c3c(c(O)c1C2=O)C[C@@](O)(C(C)=O)C[C@@H]3O[C@H]1C[C@H](N)[C@H](O)[C@H](C)O1
# Assay: cells, lysate or membranes named
# Details: other: Lineweaver-Burk plots; rat canalicular vesicles; pH 7.4
# Sequence of Mdr1b P-gp (Rattus norvegicus) (chain, as listed by the source): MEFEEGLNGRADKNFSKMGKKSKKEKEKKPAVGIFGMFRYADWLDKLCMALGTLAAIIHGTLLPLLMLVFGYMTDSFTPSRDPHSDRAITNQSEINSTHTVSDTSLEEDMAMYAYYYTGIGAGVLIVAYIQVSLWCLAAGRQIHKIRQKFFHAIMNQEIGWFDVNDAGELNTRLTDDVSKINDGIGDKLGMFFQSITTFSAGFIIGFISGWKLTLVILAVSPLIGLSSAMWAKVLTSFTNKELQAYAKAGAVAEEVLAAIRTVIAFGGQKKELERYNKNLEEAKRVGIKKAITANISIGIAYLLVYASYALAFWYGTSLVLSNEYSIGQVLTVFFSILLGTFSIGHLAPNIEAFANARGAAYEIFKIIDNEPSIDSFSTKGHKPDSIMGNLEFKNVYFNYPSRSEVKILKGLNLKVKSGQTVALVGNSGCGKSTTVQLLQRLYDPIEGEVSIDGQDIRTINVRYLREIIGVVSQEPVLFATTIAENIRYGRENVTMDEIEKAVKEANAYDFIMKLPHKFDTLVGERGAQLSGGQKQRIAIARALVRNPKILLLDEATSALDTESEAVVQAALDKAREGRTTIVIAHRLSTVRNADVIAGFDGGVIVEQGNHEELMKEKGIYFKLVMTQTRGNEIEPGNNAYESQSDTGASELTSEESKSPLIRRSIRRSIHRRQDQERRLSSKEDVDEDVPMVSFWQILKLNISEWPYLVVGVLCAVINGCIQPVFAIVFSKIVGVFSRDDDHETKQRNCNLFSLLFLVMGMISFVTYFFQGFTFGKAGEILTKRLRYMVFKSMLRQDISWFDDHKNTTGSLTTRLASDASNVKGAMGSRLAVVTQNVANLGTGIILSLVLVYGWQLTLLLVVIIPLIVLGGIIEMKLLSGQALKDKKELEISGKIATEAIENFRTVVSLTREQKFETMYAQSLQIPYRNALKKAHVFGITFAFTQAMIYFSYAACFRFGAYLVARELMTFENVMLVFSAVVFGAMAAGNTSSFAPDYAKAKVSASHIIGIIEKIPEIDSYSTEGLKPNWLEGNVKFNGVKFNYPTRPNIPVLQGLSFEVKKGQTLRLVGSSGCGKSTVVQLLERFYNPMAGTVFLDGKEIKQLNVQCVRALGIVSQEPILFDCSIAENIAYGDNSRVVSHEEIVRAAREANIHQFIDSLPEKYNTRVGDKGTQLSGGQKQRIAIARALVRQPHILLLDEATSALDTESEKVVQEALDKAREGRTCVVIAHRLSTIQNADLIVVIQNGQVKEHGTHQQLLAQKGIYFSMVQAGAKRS
substance,measurement,value
Mdr1b P-gp (Rattus norvegicus),Km,33 µM
